# According to the DeepSol protein solubility set:
# Assay: soluble on expression in E. coli; label from the status in PepcDB or PDB records
row,Sequence,soluble on expression in E. coli
1,MSLSTRVFPERPILVVDDERAALDGFEVALVSSGYTNIVTMDDSRKVLPFIAEHEAELILLDLIMPHVSGTELIEEIKRRRPEVPIIIITAVNDIDSVVECIRNGAQDYILKPVDKDHLRNRVQQALERRELERENRLLRASLLDGEIRHPEAFSDIVTQDQKMHAIFRYCEAVAPSTKPILITGETGTGKELVAQALHRLSGRKGEFVAVNIAAFDDPVFADTLFGHSRGAFTGADTPRAGLVEKAAGGTLFLDEIGDLPALSQVKLLRLLQEKEYFPVGSDNAKKANVRIVASTLKNLVDLRHRGLFRDDLYYRLTTHRIHIPPLRERPGDIPCLLDHFLELDAREQKRKPPSYHPELINLLRSYAFPGNIRELRGMISDAFMNHASHMLSSSSFRQYIMNEGHHHHHH,soluble
2,MSLSTVTMILGQSGTGKSTSLRNLDPSQTLLIQAIKKPLPFKSGNWKPANKENPAGSIFVCDSAATIVGAMKRTKRPVIVIDDFQYVMANEFMRRSAEKGFDKFTEIGRNAWDILVEAARLPDEVRVYVLSHVETTDDGRTKIKTIGRMLDEKITLEGMVSIVLKTVVQDGQHFFATRNNGSDTVKTPMGMFDADLIENDLAAVDTAIYQYYGLTEAEGHHHHHH,not soluble
3,MSLSYRIDGLQYANWSEKIFRQLRAGNVDAVHVTIAYHESFRETVLNFEKWNRWFEQYPDLIMKGQWASDIDTARETGRTAIFFGFQNPSPIEDDIGLVEILHTLGARFMQLTYNNQSLLATGCYEAEDAGITRMGRQVIKEMNRVGLVVDMSHSADRSTIEAVEISERPIAITHANPHDWAPALRNKRDDVIRAVTENGGMLGFSVYPHHLKDKSDCTLDSFCEMIARTAERYGVDHLGIGTDLCQDQPDSVVEWMRTGRWSKEIDFGEGSASAPGFPPMPHWFEDNRDFGNIENGLRATGLNKDEVAGIMGGNWYRFFAQNFVPQGEGHHHHHH,soluble
4,MSLTALSALIEQKLQSLGTILCQSFPELSPEKIHEAIQQNSNHPELPVYQLGYAIAMSDFVEKVLQKYPHLVKQWWEKSPCFADCTAYIERLNKELANVHDETALYQTLRQFRNIEMAKLSFCQSLNLATVEEIFVQLSQLAESLIIAARDWLYHQACAEIGTPMDEQGNPQQLYILGMGKLGGFELNFSSDIDLIFTYPSQGETSVENTNARRSVDNGKFFTRLGQRLISALDEFTSDGFVYRTDMRLRPFGDSGVLVLSFSAMEQYYQDQGRDWERYAMIKGRVLGAQTKDPNVSKLKKMLRPFVYRRYIDFSVIQSLREMKGKIEREVRRRGLKDNIKLGAGGIREVEFIVQVFQLIRGGREINLQQHSLLKILPEITKLRLITEQQFHDLRESYIFLRRVENILQAINDQQTQTLPTDEIDQIRLVEACKTFTCLNENNQTIEKHYPIENWDDFYRTLQQKQEKVRAVFTQLIGDEQDESSQTDSQWQDFLEADFEDIEQTLLESSVSENNIDEVLEKLAQFKDGLNHRVIGSRGRDVLSHLMPTVLALIFEQENYRTLLPRILNIIEKISSRTTYLELLLENPRALQQVIELCAQSQLISEQLAHYPILLDELLNTEALRHPLPFTQYPAELHQYLLRLPPDDEEQLIDALRQFKQATLLKVAAADILGALPVMKVSDHLTYLAEAIIEVVVNLAWKQVSSRFGVPEHLQNNEKGFLVIGYGKLGGIELGYKSDLDLVFLYDAVESQTTGGKKVIDSNQFYLRLAQKIVSIFSINTSAGVLYEADMRLRPSGDAGLIGCSLSAFSHYQLNDAWTWEKQALVRARPVFGESSLKAKFEHIRQQVLSASRDIEQLKQDVVEMRKKMFAHLSHSKHSEFNLKTDRGGITDIEFIAQYLMLANAPKKPQLTKWSDNVRIFDDMAEAKIISQTDCDTLKQCYVDLRNTIHHLNLLGKSSVVEDSEFVKERSFIQAFWDRLFVSEGHHHHHH,soluble
5,MSLTDLIVTNGAVLTMDPARPEAEAVAVADGRITAVGSRAEIERLAGPRTDMIDAGGGTVLPGFVESHLHLVLGGAELAHLQLAGVHGVEALTRAAQSFAAAHPDRPLLMAQGGDYGLLDRPMTRQDLDAILPDRPFAITAPDHHTVWANTAALRAAGLIEGASMPHGHEVVMGADGRATGELREFEAFAPVIALGGEARLNLGIATGEEPSPWPDAAERAIDRAKIARGLAHCAAHGITSMVNMDGNRYTLELLRELQRAGGLTARIRVPFHFKPHMALADLARAEAMTRDFDDDWLACNFVKMFMDGVLDSGTAYRLDDYPDAPGWRSEPLFEPARFAEIATAVDRRGLQIAVHAIGCGAVRTTLDGYAAARAANGARDSRHRIEHIELIDRADIPRLAALGVVASLQPPHPPGAMDFPLQPTLDRIGRSRWPDAYLCRTLAEAGAPVVFASDWPVTDVSVLRGLQAALTRRPYEGAADERLTLAESLRAYTAGGAWANHRERLTGTLRAGLAADLAILDGRLEARAADSLGSLGVARTLCGGRTTHRREGHHHHHH,not soluble
6,MSLTDLTKANEWLKDADAVIVTAGNGMAKEEGLDILSEENFDNQFGEIAEKYDVHTIGDALDKEFDSWEEKWTFWSKLINEYSLQYEKSENMKALEKLLEDKEYFIATSTFAHFFENAGFNENRIFDAFGDWTKMQCSSGINHGQKDNREVVKQFLQGKGELPKCEDCGSPMELHMPLNAHFFPDTDANTRFRWFLTGNEEKNVVVLELGVDATSPQLLDPMVNLVQQFSNWHYIAADLANDNLPDDLKKRAIGFGSDTHETLMNLTKEGHHHHHH,soluble
7,MSLTDNKTVPNGAPILYIVPTPIGNLGDITQRALDVLASVDMIAVEDTRHTGKLLAHFNISTKTFALHDHNEQQKAQVLVDKLLSGLSIALVSDAGTPLISDPGYHLVTQCRQAGVKVVPLPGPCAVITALSASGLPSDSFSFEGFLPAKSKARKDKLLEIAKVSRTCIFYESPHRICESLQDMLDVLGGEREVVLARELTKTFETIQGMPLAELITWIAEDDNRKKGEMVLLVHGYRDAGEQQLPDEALRTLTILTKELPLKKAAALVAEIHQLKKNALYKWGLENLGEEGHHHHHH,soluble
8,MSLTEHALSNARIVLEDDIILGSVLIRDGKIADISEGASKTGEDLEGDFLIPGLVELHTDHLEQHYSPRPGVIWDKIAAIQAHDAQVASSGITTVFDCLRLGSDEDGGFKKGEMREMADAIEAAADQNRLRADHLLHLRCEVASADVLEHFEDFETDPRVRLISLMDHSPGQRQFQSMDQYIFYYQKKRGLSDEAFAEFVRRRQAASAEYSAKHRDYLAASCAKRGITVASHDDATEAHVGEAIGHGVKLAEFPTSVEAAKASHSAGMSVLMGAPNIVRGKSHSGNIAARDLAEIGVLDVLSSDYVPFSLLFAPFLLADQVEAISLSEALRMVTATPARTVGLVDRGRIATGLRADLVRVHREDGVPVARSVWRQGKRVAEGHHHHHH,not soluble
9,MSLTHGDVMLLATSFAPGSSNIIYQVIDELVNYFKKFLFTVNYDSELTTIADCFDLLNIPKDHPSRNLTDTFYLDKNRLLRTHCTAATLRAVKETKKSNNPDIRIASFGAVFRKDDDDATHSHQFNQLDFMWIKKDFSLTNLKWFMQNMINHIFGENTSARFRLSHFPFTEPSFEIDIRCWLCQNGCGVCKKTRWIEVLGAGILHPQVMANMGFSDTDNIRGIAAGIGIERLVMLKHGISDIRDLYDNNFKFLAQFTEGHHHHHH,not soluble
10,MSLTKFHGVFPPVPTIVNAQGELDKVGMATLLDHLIASKVNGVLLLGSGGEFCHMTNALRLETAEFCVRHINRRIPVLLGISSTSTQEVIEYGQHADRLEVDAVLVLNPYYARLTDEYIYHHFKTVANNIKSPVILYNFPALTGQDLSVDLITRLAQDHPNIIGIKDTVDNISHIREIINNVRPVRPDFVIFSGYDEYMMDTLILGGNGGIPATANFAPQLTCGIYRAWCEKEYETMFGLQRRLSALSTIYSLDSPFFGIIKKAIQLSGVDISTHVMPPVLPANEEHISNLKQILQRAGLEGHHHHHH,soluble
11,MSLTLDVWQHIRQEAKELAENEPMLASFFHSTILKHQNLGGALSYLLANKLANPIMPAISLREIIEEAYQSNPSIIDCAACDIQAVRHRDPAVELWSTPLLYLKGFHAIQSYRITHYLWNQNRKSLALYLQNQISVAFDVDIHPAAKIGHGIMFDHATGIVVGETSVIENDVSILQGVTLGGTGKESGDRHPKVREGVMIGAGAKILGNIEVGKYAKIGANSVVLNPVPEYATAAGVPARIVSQDKAAKPAFDMNQYFIGIDDGMNLNEGGSHHHHHH,soluble
12,MSLTLQQKELFQKSPLLLENGETLSPVLVGYETYGTLSASRDNCILLEHALTGTAHAAKHFEDDAPGWWDDYIGPGKTIDTDKYFLVCTNVFGGCSGTTGPSSINPKTGEPFRLQFPGFSIKDIIKVQRELLEQLGVTRIVSVIGGSMGGMQATEWAIDYADITDSIINIASPLAAGPDAIGYNLIMRMAILNDPDFNGGNYVGQPEGGLATARMVGMMTYRTSELFSKRFERFTVAESSPAAFSKEHFQIESYLQYQGDTFVERFDANSYLYLTKAIDLFDVTAPAKDDLPAFSKIKIPYLLIGITTDQLFRIHDLRRGYELLKEWDVPVTYHEVASEYGHDAFLVEKEVPKFEPLIRSFLSNLPVKSIEGHHHHHH,soluble
13,MSLTNTTKIVFLGASSASFGLSMFRDLFASPVLAGSTLTLVGRNPETLGRMTELAKLMNARSGAGLIIEQTTDRRAALDGAGFVINATAIDRNRLWKQDFEVPKKHGIRHTLGENGGPGGLFFTLRTLPLVFDFIRDIEELCPTALFLNYSNPESRIILALGRYTKVRHIGLCHGIFMGRDAVAYIMQMPREEIEVWGAGLNHFQCLTEIRHRDTGEDLYPRFRAAEQSFDPDAWRFTRRLYRAFGYWLTCSDDHLGEYLPYGWEAGEKGYDFDQDERWRGEFLTQLNGVLGGTMPIPQWWTEPSGERGAAVIAAMLHNQKRFIESGIVINRGVIPNLPAELAVEVPVTVDAAGVHPVSLGPLPDPIAKLMLMQASVQQLAVEAAVHASKELALQALLIDPVVNSAVAAEKILDELWEINRPYIRKEGHHHHHH,not soluble
14,MSLTPDPAIDEVTARVYQIPTDAPEADGTLSWSSTTLVLAEVAAGGRRGIGYTYGDGACAQLITGALAGSVTGHSALDVAARWQAMVRAMRNNGRPGLVSCAISAVDTALWDLKGKLLGLPVCRLLGMAHDSVPIYGSGGFTSYDDNATRAQLERWVHEWRIPRVKIKIGESWGSHERRDLDRIALARTVIGPDTELYVDANGGYRRKQAIRMAHAMAGHDVTWFEEPVSSDDLAGLREVRDQVSADVTAGEYGYDLAYFHRMLAADAVDCLQIDVTRCGGITDWLRAAAVAAAHNVDVSGHCAPNLHAHVATAVANLRHLEYFHDHHRIEQMFFDGALSPQGGVLRPDQQRPGFGLEFKQRDADRYRMREGHHHHHH,soluble
15,MSLTQPFQLPHFYMPYPARLNPHLDEARAHSTRWARGMGMLEGSGIWEQSDLDAHDYGLLCAYTHPDCDGPALSLITDWYVWVFFFDDHFLETFKRTQDREGGKAYLDRLPLFMPLDLSAPVPEPENPVEAGLADLWARTVPAMSADWRKRFAVSTEHLLNESLWELSNINEGRIANPVEYIEMRRKVGGAPWSAGLVEYATAEVPAAVAGSRPLRVLMETFSDGVHLRNDLFSYQREVEEEGELSNGVLVLETFFGCTTQEAAETVNDILTSRLHQFEHTALTEVPALALEKGLTPPEVAAVAAYARGLQDWQSGGHEWHLRSSRYMNEEGHHHHHH,soluble
16,MSLTSTLLRGRTLSFVRWPETIDDHSAWRYEEDGGLLISDGRIIASGAYHDVEKQAGEGAKKIDHRPHLLLPGFIDTHVHFPQMQVIASYGAELLDWLNTYTFPEETKFANAQHGRRIARLFLDEMVRHGTTTVAAYCSVHKASAEAFFAESHDRNMLNIAGKVMMDRNAPDGVLDTPQSGYDDTKALIKEWHGKGRQHYAITPRFAITSSPEQMEMAGALCREHPGLHMQTHLSENHAEIAFTQQLYPRSRDYTDVYEHYGLLGKNSLFGHCIHLSEREADALSQSGSVAVFCPTSNLFLGSGLFDYQRFRRRDKPLRIAAATDVGGGTNYSMLRTMDEGYKVIALNGEKLNPFQSFWQITRGNAEALSVADKIGTLDQGTDADIVVLDARATPAMRLRMETAQTLAQELFLLQTLGDDRAVREVYVAGRAAKSDMANEGHHHHHH,soluble
